The pKd is −log10 of the Kd, conventionally taken in molar units.

This assay has as its target first Tudor domain of PHF20L1 (PHF20L1 Tudor1) (UniProt A8MW92). The assay can be described thus: NMR titration.

pKd: −log10 of the molar value.

Chain of UniProt A8MW92 (A8MW92 5-70): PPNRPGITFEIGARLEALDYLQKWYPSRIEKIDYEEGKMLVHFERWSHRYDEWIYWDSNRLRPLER

The substance “K142 mono-methylated (K142me1) DNMT1 peptide” gave a pKd of 3.17.

Values taken from article doi:10.1101/2020.04.29.069500.
